Legend:
human IL12Rβ1 (human) = human IL12Rβ1 (human) (UniProt P42701); assay: FACS on Baf3 cells transfected with human IL12Rβ1, mouse control mAb
[1] = biological target: cynomolgus IL12Rβ1 (cynomolgus); assay: FACS on Baf3 cells transfected with cyno IL12Rβ1, mouse control mAb

- EC50 (human IL12Rβ1 (human)): 2.35 nM
- EC50 [1]: 1.47 nM
Substance: Mab839 (mouse monoclonal anti-human IL12Rβ1 control antibody, R&D Systems, Cat# MAB839)

Source: US20120034231A1
